According to US20090092600A1 (Dana-Farber, published 2009):

Molecular target: T1, GST (glutathione-S-transferase) (UniProt P08515 1-218 = GST)
T1 construct: Control protein in the GST pull-down
Experiment: GST pull-down on glutathione beads, immunoblot with anti-His or anti-MUC1-C
Experimental: The binding of MUC1 to HSF1 could be direct or indirect, for example, through a third protein. To determine if the interaction between MUC1 and HSF1 is a direct, physical interaction, in vitro binding assays was performed. GST- and GST-STAT3 polypeptides were incubated with purified His-tagged MUC1-CD (similar to GST-HSF1-His-MUC1 experiments described above). The protein mixtures were then incubated with glutathione beads, which bind to the GST proteins and associated binding partners if present. The glutathione bead adsorbates were washed and immunoblotted with antibodies specific for His tags or to MUC1-C (as described above). His-tagged MUC1 was present in GST-STAT3 adsorbates but not GST-adsorbates.

T1 sequence (P08515 whole entry): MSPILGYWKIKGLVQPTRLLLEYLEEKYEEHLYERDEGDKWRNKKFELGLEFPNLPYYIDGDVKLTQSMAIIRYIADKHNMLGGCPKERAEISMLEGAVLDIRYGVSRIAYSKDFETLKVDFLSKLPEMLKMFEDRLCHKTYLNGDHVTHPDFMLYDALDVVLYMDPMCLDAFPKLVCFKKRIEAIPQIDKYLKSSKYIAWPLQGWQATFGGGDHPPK

B1: His-tagged MUC1-CD (MUC1 cytoplasmic domain) (other)
chain: CQCRRKNYGQLDIFPARDTYHPMSEYPTYHTHGRYVPPSSTDRSPYEKVSAGNGGSSLSYTNPAVAAASANL
notes: Purified recombinant protein; also called His-MUC1; not shown: His tag
  binding result: no binding
